± gives the uncertainty stated by the source.

Here are results for 77 sequences from the supplement of paper PMC7877785.

The series in a line: self-splicing fitness, log relative to wild type (ln ratio); higher = more splicing; Tetrahymena group I intron in knt gene, E. coli kanamycin selection, DiMSum; sequences stand for … in CUCUCU…GGAGGGAAAAGUUAUCAGGCAUGCACCUGGUAGCUAGUCUUUAAACCAAUAGAUUGCAUCGGUUUAAAAGGCAAGACCGUCAAAUUGCGGGAAAGGGGUCAACAGCCGUUCAGUACCAAGUCUCAGGGGAAACUUUGAGAUGGCCUUGCAAAGGGUAUGGUAAUAAGCUGACGGACAUGGUCCUAACCACGCAGCCAAGUCCUAAGUCAACAGAUCUUCUGUUGAUAUGGAUGCAGUUCACAGACUAAAUGUCGGUCGGGGAAGAUGUAUUCUUCUCAUAAGAUAUAGUCGGACCUCUCCUUAAUGGGAGCUAGCGGAUGAAGUGAUGCAACACUGGAGCCGCUGGGAACUAAUUUGUAUGCGAAAGUAUAUUGAUUAGUUUUGGAGUACUCGUGGUCG
The procedure, abridged: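 The eight P1ex-region nucleotides of an intron in the knt kanamycin-resistance gene on pET-22b(+) were all randomised and the library put into E. coli BL21(DE3). Six replicate transformations were grown overnight at 37°C or 30°C on LB agar with or without 25 μg/mL kanamycin, together with 100 μg/mL carbenicillin, 50 μM IPTG and 0.2% rhamnose. Colonies were pooled and amplicon-sequenced on an Illumina HiSeq 2500. Fitness from DiMSum is the error-weighted combination of wild-type-normalised replicate fold changes, kanamycin over none.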

With AUGAAGCAAUAUUACGAAAG, the “self-splicing fitness (ln)” value (30 °C) was -1.77 ± 0.11 and the “self-splicing fitness (ln)” value (37 °C) is -0.735 ± 0.16.
For the sequence UAGGAGCAAUAUUACGUAGA, the “self-splicing fitness (ln)” value reads like this: (30 °C) -1.5 ± 0.2; (37 °C) -1.06 ± 0.16.
Taken in the same sequence, the figures for AACCAGCAAUAUUACGGCCA were -0.365 ± 0.067 and -0.114 ± 0.085.
CACCAGCAAUAUUACGCGAC: the “self-splicing fitness (ln)” value is, setting by setting: (30 °C) -4.31 ± 0.2; (37 °C) -2.89 ± 0.23.
Taken in the same sequence, the figures for GGAGAGCAAUAUUACGAAAC were -2.48 ± 0.29 and -1.36 ± 0.47.
Consider GACGAGCAAUAUUACGGCCU, for which the “self-splicing fitness (ln)” value is -1.85 ± 0.096 (30 °C) and -1.12 ± 0.14 (37 °C).
In the case of UGAGAGCAAUAUUACGGCGA, the “self-splicing fitness (ln)” value is -3.53 ± 0.34 (30 °C) and -0.434 ± 0.23 (37 °C).
Regarding GAUAAGCAAUAUUACGCUCC, the “self-splicing fitness (ln)” value (30 °C) was -1.82 ± 0.34.
As to CGUAAGCAAUAUUACGCAGA, the “self-splicing fitness (ln)” value reads like this: (30 °C) -2.28 ± 0.27; (37 °C) -2.67 ± 0.38.
CUGGAGCAAUAUUACGGUAG: the “self-splicing fitness (ln)” value (30 °C) is -2.51 ± 0.22 and the “self-splicing fitness (ln)” value (37 °C) is -0.514 ± 0.16.
The like results for GUAGAGCAAUAUUACGGUCC were, in that order, -1.01 ± 0.17 and -0.565 ± 0.28.
Taken in the same sequence, the figures for CAAAAGCAAUAUUACGAGAA were -1.51 ± 0.24 and -2.47 ± 0.25.
The like results for CCUGAGCAAUAUUACGCCAG were, in that order, -2.75 ± 0.41 and -1.62 ± 0.32.
GCCGAGCAAUAUUACGUGCC: the “self-splicing fitness (ln)” value runs as follows: (30 °C) -3.35 ± 0.15; (37 °C) -2.52 ± 0.2.
As for CAUCAGCAAUAUUACGCUCA, the “self-splicing fitness (ln)” value is -1.55 ± 0.18 (30 °C) and -0.924 ± 0.16 (37 °C).
Taken in the same sequence, the figures for ACUAAGCAAUAUUACGGGAU were -2.17 ± 0.073 and -1.3 ± 0.097.
The like results for AUGUAGCAAUAUUACGCACU were, in that order, -0.786 ± 0.099 and 0.708 ± 0.14.
For the sequence GAUUAGCAAUAUUACGAGAG, the “self-splicing fitness (ln)” value (30 °C) was -3.5 ± 0.25 and the “self-splicing fitness (ln)” value (37 °C) was -1.83 ± 0.18.
For the sequence AAGUAGCAAUAUUACGUAGC, the “self-splicing fitness (ln)” value (30 °C) was -3.25 ± 0.33 and the “self-splicing fitness (ln)” value (37 °C) was -2.3 ± 0.31.
The like results for GGCCAGCAAUAUUACGCACA were, in that order, -0.344 ± 0.16 and -0.177 ± 0.17.
Taken in the same sequence, the figures for GUAGAGCAAUAUUACGCAAA were -2.21 ± 0.16 and -1.59 ± 0.17.
For the sequence UAGUAGCAAUAUUACGUCAU, the “self-splicing fitness (ln)” value (30 °C) was -3.57 ± 0.37.
For AGUAAGCAAUAUUACGUUCC, the “self-splicing fitness (ln)” value is, setting by setting: (30 °C) -1.85 ± 0.16; (37 °C) -0.345 ± 0.13.
Taken in the same sequence, the figures for CAUAAGCAAUAUUACGCUAA were -2.58 ± 0.3 and -0.864 ± 0.24.
The like results for GUCUAGCAAUAUUACGACUU were, in that order, -1.32 ± 0.12 and -0.56 ± 0.11.
On to CUUUAGCAAUAUUACGCAAA, for which the “self-splicing fitness (ln)” value by setting is: (30 °C) -2.51 ± 0.21; (37 °C) -1.34 ± 0.2.
As for UUGUAGCAAUAUUACGCUUA, the “self-splicing fitness (ln)” value (30 °C) was -1.77 ± 0.25 and the “self-splicing fitness (ln)” value (37 °C) is -1 ± 0.2.
Taken in the same sequence, the figures for CCUAAGCAAUAUUACGUGUA were -3.61 ± 0.15 and -1.89 ± 0.14.
For UGACAGCAAUAUUACGGUUA, the “self-splicing fitness (ln)” value is, setting by setting: (30 °C) -0.746 ± 0.073; (37 °C) -0.364 ± 0.065.
Consider GCAUAGCAAUAUUACGUGAC, for which the “self-splicing fitness (ln)” value runs as follows: (30 °C) -2.49 ± 0.2; (37 °C) -0.677 ± 0.14.
The like results for CGGCAGCAAUAUUACGCGGC were, in that order, -2.84 ± 0.27 and -3.03 ± 0.26.
Taken in the same sequence, the figures for CAAGAGCAAUAUUACGAAGA were -1.75 ± 0.35 and -3.14 ± 0.43.
For the sequence UGUUAGCAAUAUUACGAGUC, for the setting “30 °C”, the “self-splicing fitness (ln)” value was -4.22 ± 0.42.
In the case of UGGAAGCAAUAUUACGGAUG, the “self-splicing fitness (ln)” value reads like this: (30 °C) -0.948 ± 0.098; (37 °C) -0.832 ± 0.12.
Take UUCUAGCAAUAUUACGGAUA: the “self-splicing fitness (ln)” value is, setting by setting: (30 °C) -1.44 ± 0.17; (37 °C) -0.551 ± 0.15.
With GUGUAGCAAUAUUACGCCGA, the “self-splicing fitness (ln)” value (37 °C) was -2.39 ± 0.42.
For AUUGAGCAAUAUUACGGCUG, the “self-splicing fitness (ln)” value reads like this: (30 °C) -1.83 ± 0.14; (37 °C) -1.81 ± 0.17.
With GUGUAGCAAUAUUACGUAGC, the “self-splicing fitness (ln)” value was -3.09 ± 0.23 (30 °C) and -1.41 ± 0.28 (37 °C).
For CUCUAGCAAUAUUACGUUAU, the “self-splicing fitness (ln)” value (30 °C) was -3.92 ± 0.4 and the “self-splicing fitness (ln)” value (37 °C) is -2.16 ± 0.25.
On to CCUAAGCAAUAUUACGAAUC, for which the “self-splicing fitness (ln)” value (30 °C) is -0.765 ± 0.2.
As to ACGCAGCAAUAUUACGCAUU, the “self-splicing fitness (ln)” value reads like this: (30 °C) -3.81 ± 0.19; (37 °C) -1.89 ± 0.12.
The like results for CAUCAGCAAUAUUACGCCUU were, in that order, -1.92 ± 0.12 and -0.379 ± 0.12.
Taken in the same sequence, the figures for CAGUAGCAAUAUUACGGAUU were -2.84 ± 0.17 and -3.21 ± 0.27.
The like results for GGUAAGCAAUAUUACGAGUA were, in that order, -2.4 ± 0.21 and -1.03 ± 0.14.
With CACCAGCAAUAUUACGCGGG, the “self-splicing fitness (ln)” value (30 °C) is -3.44 ± 0.16 and the “self-splicing fitness (ln)” value (37 °C) was -2.4 ± 0.15.
The like results for AGCUAGCAAUAUUACGGACA were, in that order, -1.06 ± 0.12 and 0.0203 ± 0.15.
Taken in the same sequence, the figures for AUUAAGCAAUAUUACGUAAU were -1.66 ± 0.11 and -0.745 ± 0.14.
The like results for AUGAAGCAAUAUUACGUGCU were, in that order, -1.69 ± 0.12 and -1.39 ± 0.12.
Regarding AAGGAGCAAUAUUACGGUCG, for the setting “30 °C”, the “self-splicing fitness (ln)” value is -2.96 ± 0.22.
As for CAAAAGCAAUAUUACGCUUU, the “self-splicing fitness (ln)” value (30 °C) was -3.96 ± 0.21 and the “self-splicing fitness (ln)” value (37 °C) is -2.55 ± 0.17.
Taken in the same sequence, the figures for UAAAAGCAAUAUUACGGCUA were 0.159 ± 0.073 and -0.0882 ± 0.084.
As to ACUGAGCAAUAUUACGAUUA, the “self-splicing fitness (ln)” value by setting is: (30 °C) -3.39 ± 0.3; (37 °C) -1.78 ± 0.18.
Consider GUACAGCAAUAUUACGCGGU, for which the “self-splicing fitness (ln)” value (30 °C) is -3.17 ± 0.15 and the “self-splicing fitness (ln)” value (37 °C) is -2.31 ± 0.15.
Taken in the same sequence, the figures for ACCAAGCAAUAUUACGUUAA were -3.17 ± 0.18 and -2.46 ± 0.17.
CUGCAGCAAUAUUACGUCAC: the “self-splicing fitness (ln)” value (30 °C) was -3.39 ± 0.31.
In the case of GUCGAGCAAUAUUACGCAAU, the “self-splicing fitness (ln)” value runs as follows: (30 °C) -1.08 ± 0.1; (37 °C) -0.467 ± 0.14.
Taken in the same sequence, the figures for AAUUAGCAAUAUUACGAAGU were -2.79 ± 0.21 and -1.05 ± 0.17.
Taken in the same sequence, the figures for ACUUAGCAAUAUUACGUGUA were -2.37 ± 0.11 and -1.43 ± 0.095.
The like results for GUUAAGCAAUAUUACGUUUG were, in that order, -2.55 ± 0.12 and -1.86 ± 0.17.
For CCCGAGCAAUAUUACGCAGA, the “self-splicing fitness (ln)” value reads like this: (30 °C) -3.96 ± 0.25; (37 °C) -2.71 ± 0.33.
For the sequence AUACAGCAAUAUUACGCCUC, the “self-splicing fitness (ln)” value by setting is: (30 °C) -2.79 ± 0.2; (37 °C) -1.86 ± 0.17.
The like results for CGUAAGCAAUAUUACGCGUA were, in that order, -3 ± 0.28 and -2.9 ± 0.2.
Regarding AACUAGCAAUAUUACGGAAA, the “self-splicing fitness (ln)” value is, setting by setting: (30 °C) -2.54 ± 0.2; (37 °C) -0.697 ± 0.13.
Consider GCGUAGCAAUAUUACGGCCU, for which the “self-splicing fitness (ln)” value was -0.557 ± 0.16 (30 °C) and -0.113 ± 0.25 (37 °C).
AUCAAGCAAUAUUACGUUUC: the “self-splicing fitness (ln)” value (37 °C) is -1.52 ± 0.34.
Take GGGCAGCAAUAUUACGGUUC: the “self-splicing fitness (ln)” value is, setting by setting: (30 °C) -1.53 ± 0.11; (37 °C) -1.93 ± 0.13.
Taken in the same sequence, the figures for GCCAAGCAAUAUUACGAGCA were -1.82 ± 0.14 and -1.11 ± 0.15.
Taken in the same sequence, the figures for UGCUAGCAAUAUUACGGUGG were -1.94 ± 0.066 and -1.33 ± 0.086.
Turning to CCAGAGCAAUAUUACGCCCU, the “self-splicing fitness (ln)” value is -2.65 ± 0.48 (30 °C) and -2.07 ± 0.36 (37 °C).
Regarding CCUCAGCAAUAUUACGGAAA, the “self-splicing fitness (ln)” value is -3.7 ± 0.23 (30 °C) and -1.63 ± 0.17 (37 °C).
The like results for AGAUAGCAAUAUUACGUAAG were, in that order, -1.31 ± 0.065 and -1.44 ± 0.088.
Taken in the same sequence, the figures for CGCUAGCAAUAUUACGUAUC were -3.84 ± 0.33 and -2.76 ± 0.31.
The like results for GAACAGCAAUAUUACGAAGU were, in that order, -2.04 ± 0.12 and -0.944 ± 0.15.
For GUUAAGCAAUAUUACGGCCA, the “self-splicing fitness (ln)” value was -0.63 ± 0.17 (30 °C) and -0.359 ± 0.23 (37 °C).
For ACUGAGCAAUAUUACGGGAU, the “self-splicing fitness (ln)” value by setting is: (30 °C) -3.03 ± 0.17; (37 °C) -2.18 ± 0.22.
Turning to AGAUAGCAAUAUUACGCCAG, the “self-splicing fitness (ln)” value was -3.6 ± 0.5 (30 °C) and -1.78 ± 0.39 (37 °C).
In the case of UCAUAGCAAUAUUACGUAAA, the “self-splicing fitness (ln)” value (30 °C) was -2.76 ± 0.19 and the “self-splicing fitness (ln)” value (37 °C) is -1.99 ± 0.21.
